Results: patent publication US20160279199A1, “PHARMACEUTICAL COMPOSITION FOR TREATING A METABOLIC SYNDROME” (Sanofi, priority 2010, published 2016)

Tests used:
mouse 3T3-L1 adipocytes = conditions: in the presence and absence of insulin; cited from earlier work
[1] = test system: ob/ob mice, db/db mice, ZDF rats; conditions: cited from earlier work
diabetic rhesus monkeys = conditions: 6 weeks; cited from earlier work
db/db mice [2] = assay: Oral glucose tolerance test (OGTT) in treated db/db mice; assay type: in vivo, mouse; conditions: after 21 days s.c. once daily (AVE0010 0.05, FGF-21 0.75, combination 0.75+0.05 mg·kg−1·day−1), fasted, 2 g·kg−1 oral glucose, vs vehicle treated obese control, FIG. 5
Procedure: (§1) Female db/db mice (BKS.Cg-m +/+ Leprdb/J, age of 6 weeks) were treated with vehicle (PBS), 0.05 mg·kg^−1·day^−1 AVE0010, 0.75 mg·kg^−1·day^−1 recombinant human FGF-21 (SEQ ID NO: 2) or a combined dose of FGF-21 (SEQ ID NO: 2) and AVE0010 (SEQ ID NO:9), (0.75+0.05 mg·kg^−1·day^−1) subcutaneously once daily. Mice were fed ad libitum. Before the first treatment, after one week and 4 weeks blood glucose and HbA1c were measured under fed conditions. After 21 days of treatment an oral glucose tolerance test (OGTT) was initiated. Fasted mice were orally challenged with 2 g·kg^−1 glucose solution and blood glucose was measured at indicated time points.

db/db mice [3] = assay: Fed blood glucose during treatment of db/db mice; assay type: in vivo, mouse; conditions: s.c. once daily (AVE0010 0.05, FGF-21 0.75, combination 0.75+0.05 mg·kg−1·day−1), up to 4 weeks, FIG. 6
Procedure: as §1

[4] = ob/ob and db/db mice and obese ZDF rats

B1: FGF21: Fibroblast growth factor 21, metabolic regulator produced primarily by the liver, as studied in the cited literature (protein, UniProt Q9NSA1 29-209, looked up)
Fibroblast growth factor 21: HPIPDSSPLLQFGGQVRQRYLYTDDAQQTEAHLEIREDGTVGGAADQSPESLLQLKALKPGVIQILGVKTSRFLCQRPDGALYGSLHFDPEACSFRELLLEDGYNVYQSEAHGLPLHLPGNKSPHRDPAPRGPARFLPLPGLPPALPEPPGILAPQPPDVGSSDPLSMVGPSQGRSPSYAS
**Q.** Which results are given for B1?
**A.** glucose uptake (mouse 3T3-L1 adipocytes): stimulate glucose uptake; mitogenicity, hypoglycemia, or weight gain ([1]; any dose tested, diabetic or healthy animals): did not induce; food intake or body weight/composition ([1]; diabetic or lean mice and rats, 2 weeks of administration): did not affect; fed and fasting blood glucose, triglycerides, and glucagon levels ([1]; ob/ob and db/db mice and 8 week old ZDF rats, dose dependent): decrease; blood glucose and triglycerides [1, 4]: significantly lowered; fasting insulin levels [1, 4]: decreased; glucose clearance during an oral glucose tolerance test [1, 4]: improved; HDL-cholesterol (diabetic rhesus monkeys): increased; LDL-cholesterol (diabetic rhesus monkeys): significantly lowered; body weight (diabetic rhesus monkeys): slightly but significantly decreased; fasting plasma glucose, fructosamine, triglyceride, insulin and glucagone levels (diabetic rhesus monkeys): reduced; hypoglycemia (diabetic rhesus monkeys): not observed

B2: FGF-21 (SEQ ID NO: 2): mutated FGF-21 carrying a deletion of amino acids 1-28 of human FGF-21 and an additional glycine at the N-terminus (protein)
chain: GHPIPDSSPLLQFGGQVRQRYLYTDDAQQTEAHLEIREDGTVGGAADQSPESLLQLKALKPGVIQILGVKTSRFLCQRPDGALYGSLHFDPEACSFRELLLEDGYNVYQSEAHGLPLHLPGNKSPHRDPAPRGPARFLPLPGLPPAPPEPPGILAPQPPDVGSSDPLSMVGPSQGRSPSYAS
modifications: G linked to fragment of human FGF21 from H29 to S209
notes: mutated FGF-21 carrying a deletion of amino acids 1-28 of human FGF-21 and an additional glycine at the N-terminus
**Q.** What does the source list for B2?
**A.** glucose tolerance (OGTT) (db/db mice [2]): small improvement in glucose tolerance; blood glucose (db/db mice [3]): inhibition of blood glucose increase
